According to US20250075006A1 (SHANDONG SIMCERE BIOPHARMACEUTICAL, published 2025):
Read-outs that look alike come from different tables or passages of the source.

B1: 5F9-hIgG1 (antibody, V domains shown)
VH: QVQLQQWGAGLLKPSETLSLTCAVFGGSFSGYYWSWIRQPPGKGLEWIGEINHRGNTNDNPSLKSRVTISVDTSKNQFALKLSSVTAADTAVYYCARERGYTYGNFDHWGQGTLVTVSS
VL: EIVMTQSPATLSVSPGERATLSCRASQSVSRNLAWYQQKPGQAPRLLIYGASTRATGIPARFSGSGSGTEFTLTIGSLQSEDFAVYYCQQYKTWPRTFGQGTNVEIKR
notes: also called positive control antibody
B2: PF1608-hIgG1 (antibody, V domains shown)
VH: EVQLVESGGGLVQPGGSLRLSCAASGFTFSSYWMHWVRQAPGKGLEWIGEIKPSNELTNVHEKFKDRFTISVDKAKNSAYLQMNSLRAEDTAVYYCTRTITTTEGYWFFDVWGQGTLVTVSS
VL: DIQLTQSPSSLSASVGDRVTITCRASESVDYYGSSLLQWYQQKPGKAPKLLIYAASKLASGVPSRFSGSGSGTDFTLTISSLQPEDFATYYCQQTRKAYTFGQGTKLEIKR
notes: also called PF1608-hlgG1; positive control antibody

Columns and labels:
[1] = target: T1, human GUCY2C protein, full length, on cells (human, UniProt P25092 24-1073); test: FACS on 293T-hGUCY2C cells, MFI
T1 construct: whole, on cells; also called endogenous tumor cells HT55
Procedure: (§1) Then a complete medium was added to stop the digestion, and the cells were blown into a single cell suspension. After counting, the cells were centrifuged, and the cell pellet was resuspended to 2×10⁶ cells/mL in an FACS buffer (PBS+2% fetal bovine serum), and added to a 96-well FACS reaction plate at 100 μL/well. The plate was centrifuged, and the supernatant was discarded. An antibody sample to be tested (diluted in a 3-fold gradient from a starting concentration of 100 nM) was added at 50 μL/well and uniformly mixed with the cells, and the mixture was incubated at 4° C. for 1 h. […] The results were tested and analyzed by FACS (FACS Canto™, purchased from BD) after the plate was centrifuged and washed 3 times with a PBS buffer and resuspended with 100 μL of PBS. Data analysis was performed by software (FlowJo) to obtain the mean fluorescence intensity (MFI) of the cells. Then, analysis was performed by software (GraphPad Prism8), data were fitted, and EC50 values were calculated.

[2] = target: T1, human GUCY2C protein, full length, on …; test: FACS on 293T-hGUCY2C cells, MFI; remark: listed apart in the source
Procedure: as §1, with “5-fold” for “3-fold”, “calculated. As shown in A-C in FIG. 14, PF1608-hIgG1 binds strongly to GUCY2C at the protein level, but weakly at the cellular level. The humanized antibodies of the present application are all capable of binding effectively to recombinant cells expressing human GUCY2C protein and substantially maintain the equivalent binding ability of the recombinant antibodies.” for “calculated.”

[3] = target: T1, human GUCY2C protein, full length, on …; test: FACS on 293T-hGUCY2C cells, MFI; remark: listed apart in the source
Procedure: as §1, with “5-fold” for “3-fold”, “calculated. As shown in A-C in FIG. 14, PF1608-hIgG1 binds strongly to GUCY2C at the protein level, but weakly at the cellular level. The humanized antibodies of the present application are all capable of binding effectively to recombinant cells expressing human GUCY2C protein and substantially maintain the equivalent binding ability of the recombinant antibodies.” for “calculated.”

[4] = target: T1, human GUCY2C protein, full length, on …; test: FACS on 293T-hGUCY2C cells, MFI; remark: listed apart in the source
Procedure: as §1, with “5-fold” for “3-fold”, “calculated. As shown in A-C in FIG. 14, PF1608-hIgG1 binds strongly to GUCY2C at the protein level, but weakly at the cellular level. The humanized antibodies of the present application are all capable of binding effectively to recombinant cells expressing human GUCY2C protein and substantially maintain the equivalent binding ability of the recombinant antibodies.” for “calculated.”

[5] = target: T2, Human GUCY2C ECD (his-tagged human GUCY2C protein extracellular domain fusion protein) (human, UniProt P25092 24-430); test: ELISA, plate coated with human GUCY2C-his, OD450
T2 construct: also called human GUCY2C-his; human GUCY2C-His
Procedure: A human GUCY2C-his protein was diluted with PBS to a final concentration of 2 μg/mL and then added to a 96-well ELISA plate at 50 μL/well. The plate was sealed with a plastic film and incubated at 4° C. overnight. The next day, the plate was washed 2 times with PBST, and a blocking buffer [PBS+2% (w/w) BSA] was added for blocking at room temperature for 2 h. The blocking buffer was discarded, and the recombinant antibody and positive and negative control antibody with a starting concentration of 100 nM serially diluted by 3 folds were added at 50 μL/well. After incubation at 37° C. for 1 h, the plate was washed 3 times with PBST. A horseradish peroxidase (HRP)—labeled secondary antibody (purchased from Merck, Cat. No. AP113P) was added for incubation at 37° C. for 1 h, and the plate was washed 5 times with PBST. A TMB substrate was added at 50 μL/well for incubation at room temperature for 10 min, and then a stop solution (1.0 M HCl) was added at 50 μL/well. The OD450 nm values were read by an ELISA plate reader (Multimode Plate Reader, EnSight, purchased from Perkin Elmer).

[6] = target: T1, human GUCY2C protein, full length, on …; test: FACS on HT55 tumor cells (endogenous GUCY2C), MFI
Procedure: as §1
The binding of the recombinant antibody to the endogenous tumor cell HT55 was detected in the same manner.

[7] = target: T2, Human GUCY2C ECD (his-tagged human …); test: ELISA, plate coated with human GUCY2C-his, OD450; remark: listed apart in the source
Procedure: To assay the binding activity of the humanized antibodies to human GUCY2C-his protein, a human GUCY2C-his protein was diluted with PBS to a final concentration of 2 μg/mL and then added to a 96-well ELISA plate at 50 μL/well. The plate was sealed with a plastic film and incubated at 4° C. overnight. The next day, the plate was washed 2 times with PBST, and a blocking buffer [PBS+2% (w/w) BSA] was added for blocking at room temperature for 2 h. The blocking buffer was discarded, and the plate was washed 2 times with PBST. An antibody to be tested or a control antibody diluted in a 1:3 gradient from a starting concentration of 100 nM was added at 50 μL/well. After incubation at 37° C. for 1 h, the plate was washed 3 times with PBST. A horseradish peroxidase (HRP)—labeled secondary antibody (purchased from Merck, Cat. No. AP113P) was added for incubation at 37° C. for 1 h, and the plate was washed 5 times with PBST. A TMB substrate was added at 50 µL/well for incubation at room temperature for 5-10 min, and then a stop solution (1.0 M HCl) was added at 50 μL/well. OD450 nm values were read using an ELISA plate reader (Multimode Plate Reader, EnSight, purchased from Perkin Elmer).

[8] = target: T1, human GUCY2C protein, full length, on …; test: FACS on HT55 tumor cells (endogenous GUCY2C), MFI; remark: listed apart in the source
[9] = target: T1, human GUCY2C protein, full length, on …; test: FACS on HT55 tumor cells (endogenous GUCY2C), MFI; remark: listed apart in the source
[10] = target: T1, human GUCY2C protein, full length, on …; test: FACS on HT55 tumor cells (endogenous GUCY2C), MFI; remark: listed apart in the source

T1 sequence (P25092 24-1073): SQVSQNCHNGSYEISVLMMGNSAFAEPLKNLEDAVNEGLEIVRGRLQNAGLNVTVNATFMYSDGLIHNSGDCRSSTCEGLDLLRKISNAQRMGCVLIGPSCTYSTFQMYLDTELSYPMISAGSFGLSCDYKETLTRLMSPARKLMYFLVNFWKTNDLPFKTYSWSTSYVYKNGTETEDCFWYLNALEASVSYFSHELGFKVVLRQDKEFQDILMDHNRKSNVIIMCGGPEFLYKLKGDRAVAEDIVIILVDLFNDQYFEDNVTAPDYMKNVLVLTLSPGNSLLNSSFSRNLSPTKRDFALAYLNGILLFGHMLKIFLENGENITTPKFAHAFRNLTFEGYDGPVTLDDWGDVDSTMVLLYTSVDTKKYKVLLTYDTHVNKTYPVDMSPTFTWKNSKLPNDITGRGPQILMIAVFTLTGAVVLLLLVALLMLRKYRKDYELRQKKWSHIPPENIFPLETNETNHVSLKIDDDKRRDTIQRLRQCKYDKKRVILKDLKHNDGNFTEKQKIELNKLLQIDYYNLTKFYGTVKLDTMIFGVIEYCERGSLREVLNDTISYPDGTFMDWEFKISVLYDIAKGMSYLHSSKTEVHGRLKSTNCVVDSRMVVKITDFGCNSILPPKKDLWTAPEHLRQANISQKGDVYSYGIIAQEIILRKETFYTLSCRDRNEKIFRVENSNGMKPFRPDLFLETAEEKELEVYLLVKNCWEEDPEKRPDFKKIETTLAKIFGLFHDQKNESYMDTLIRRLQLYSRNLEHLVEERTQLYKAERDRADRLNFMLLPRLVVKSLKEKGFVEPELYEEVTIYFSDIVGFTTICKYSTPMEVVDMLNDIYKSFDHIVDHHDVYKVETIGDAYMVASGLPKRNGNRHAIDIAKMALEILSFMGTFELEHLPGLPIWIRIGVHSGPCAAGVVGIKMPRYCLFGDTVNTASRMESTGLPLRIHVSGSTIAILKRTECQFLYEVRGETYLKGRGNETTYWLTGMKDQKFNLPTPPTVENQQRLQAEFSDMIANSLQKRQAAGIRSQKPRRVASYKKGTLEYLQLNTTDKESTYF
T2 sequence (P25092 other isoform, or with tags, fused parts or gaps): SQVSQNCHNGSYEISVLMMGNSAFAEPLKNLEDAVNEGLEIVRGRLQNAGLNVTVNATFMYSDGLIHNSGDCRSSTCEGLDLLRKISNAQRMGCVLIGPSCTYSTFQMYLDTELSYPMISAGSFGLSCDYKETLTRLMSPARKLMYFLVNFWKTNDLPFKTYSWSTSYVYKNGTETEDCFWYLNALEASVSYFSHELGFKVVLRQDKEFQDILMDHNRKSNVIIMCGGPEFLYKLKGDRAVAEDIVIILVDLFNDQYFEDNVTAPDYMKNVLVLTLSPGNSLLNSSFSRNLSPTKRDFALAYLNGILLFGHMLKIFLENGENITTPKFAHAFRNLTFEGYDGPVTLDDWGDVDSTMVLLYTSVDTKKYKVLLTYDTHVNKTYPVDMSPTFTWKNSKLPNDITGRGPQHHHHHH

Binder	EC50 (read off the curve) [1]	EC50 (read off the curve) [2]	EC50 (read off the curve) [3]	EC50 (read off the curve) [4]	EC50 (read off the curve) [5]	EC50 (read off the curve) [6]	EC50 (read off the curve) [7]	EC50 (read off the curve) [8]	EC50 (read off the curve) [9]	EC50 (read off the curve) [10]
B1	~0.9 nM	~1 nM	~1 nM	~1 nM	~0.05 nM	~0.3 nM	~0.04 nM	~0.3 nM	~0.3 nM	~0.3 nM
B2	–	–	–	–	~0.09 nM	–	~0.05 nM	–	–	–
